Ends that are not written are not given here. fluorescein = fluorescein tag at the N-terminus
B1: Human GCNF (NR6A1) ligand binding domain (LBD), residues 248-480, hexahistidine-tagged (receptor, UniProt Q15406 248-480, looked up)
chain: PQSYSLIHQLLSAEDLEPLGTPMLIEDGYAVTQAELFALLCRLADELLFRQIAWIKKLPFFCELSIKDYTCLLSSTWQELILLSSLTVYSKQIFGELADVTAKYSPSDEELHRFSDEGMEVIERLIYLYHKFHQLKVSNEEYACMKAINFLNQDIRGLTSASQLEQLNKRYWYICQDFTEYKYTHQPNRFPDLMMCLPEIRYIAGKMVNVPLEQLPLLFKVVLHSCKTSVGKE
notes: range 248-480; Expressed in E. coli as a 263-amino acid hexahistidine-tagged construct (30.4 kDa); about 60 kDa homodimer by analytical size exclusion; The tag is placed first as a guess; also called GCNF LBD; wild-type GCNF; not shown: 3C protease-cleavable hexahistidine tag from pET45b(+)
B2: SMRT ID1 corepressor peptide, N-terminus fluorescein-tagged (peptide)
peptide: fluorescein-GHQRVVTLAQHISEVITQDYTRH
notes: Bought from ThermoFisher Scientific; 500 nM in the FP assay; also called SMRT box 1
B3: NCoR ID2 corepressor peptide, N-terminus fluorescein-tagged (peptide)
peptide: fluorescein-DPASNLGLEDIIRKALMGSFDDK
notes: Bought from ThermoFisher Scientific; 500 nM in the FP assay; also called NCoR box 2
B4: NCoR ID1 corepressor peptide, N-terminus fluorescein-tagged (peptide)
peptide: fluorescein-RTHLITLADHICQIITQDFARN
notes: Bought from ThermoFisher Scientific; 500 nM in the FP assay; also called NCoR box 1

What was measured:
[1] = biological target: the molecule itself; assay: analytical size exclusion chromatography with SDS-PAGE of the pooled fractions
[2] = biological target: B1; assay: fluorescence polarization, 500 nM fluorescein-tagged peptide, GCNF LBD titrated
Method: (§1) FP Assay. Fluorescence polarization (FP) assays were performed in triplicate on a 384-well Corning 3820 black opaque plate using a Biotek Synergy Neo2 HTS multimode microplate reader at excitation and emission wavelengths of 485 nm and 538 nm, respectively. Data were analyzed and plotted using GraphPad Prism as mean±SEM.
For the corepressor peptide FP binding assay, 70.0, 35.0, 17.5, 8.8, 4.4, 2.2, 1.1, 0.55, 0.27, 0.14, and 0 μM of GCNF LBD was mixed with 500 nM N-terminus fluorescein-tagged corepressor peptides NCoR ID1 ([…] (SEQ ID NO: 1)), NCoR ID2 ([…] (SEQ ID NO: 2)), SMRT ID1 ([…] (SEQ ID NO: 3)), or SMRT ID2 ([…] (SEQ ID NO: 4)) (ThermoFisher Scientific) in assay buffer containing 50 mM HEPES (pH 7.5), 50 mM KCl, 5 mM TCEP, 0.5 mM EDTA and 0.005% Tween20. The relative polarization was plotted against the GCNF LBD concentration and fitted via nonlinear regression (one site specific binding with Hill slope) to extract KD.

[3] = biological target: B1; assay: fluorescence polarization, 500 nM fluorescein-tagged peptide, GCNF LBD titrated 0-70 µM
Method: GCNF protein binds directly to DR0 sites or direct repeats of AGGTCA with no spacing between half sites in the promoters of both the Oct4 and Nanog genes and is thought to repress target genes via interactions with corepressors SMRT and NCoR (Furhmann et al., 2001; Gu et al., 2005; Yan et al., 2000). To determine whether ligand binding can affect the interaction between GCNF and its associated corepressor proteins SMRT and NCoR, a fluorescence polarization assay was performed to monitor the ability of ligands to affect corepressor peptide recruitment to the GCNF LBD. Since GCNF LBD was predicted to interact with transcriptional corepressors NCoR and SMRT via its N-terminal portion (Furhmann et al., 2001; Yan et al., 1997; Yan et al., 2000), an FP assay was initially performed consisting of different fluorescein-tagged peptides derived from these corepressors. […] Meanwhile, titrating 34, but not ligand 80, increased the recruitment of SMRT ID2, the tighter binding corepressor peptide (FIG. 4C). […]
as §1

## B1
[1]
  binding result: binds

## B2
[2]
  binding result: no binding (tested: GCNF LBD up to 70.0 µM)

## B3
[2]
  binding result: no binding (tested: GCNF LBD up to 70.0 µM)

## B4
[3]
  Kd: 32 µM

Source: patent US20220110942A1 (SAINT LOUIS UNIVERSITY, published 2022)
